Measured values taken from US20060159654A1 (ROCKEFELLER UNIVERSITY, published 2006).

What was measured:
[1] = target: murine TRANCE receptor (TRANCE-R) on the cell surface (murine) (UniProt O35305); experiment: cell-based or functional assay
[2] = target: T1, murine TRANCE (mTRANCE) on the cell surface (murine, UniProt O35235 1-316); experiment: flow cytometry on transfected 293T cells and on activated murine T cells, TR-Fc at 5 mg/ml as printed, FITC anti-human Fc
T1 construct: also called RANK-L
T1 sequence: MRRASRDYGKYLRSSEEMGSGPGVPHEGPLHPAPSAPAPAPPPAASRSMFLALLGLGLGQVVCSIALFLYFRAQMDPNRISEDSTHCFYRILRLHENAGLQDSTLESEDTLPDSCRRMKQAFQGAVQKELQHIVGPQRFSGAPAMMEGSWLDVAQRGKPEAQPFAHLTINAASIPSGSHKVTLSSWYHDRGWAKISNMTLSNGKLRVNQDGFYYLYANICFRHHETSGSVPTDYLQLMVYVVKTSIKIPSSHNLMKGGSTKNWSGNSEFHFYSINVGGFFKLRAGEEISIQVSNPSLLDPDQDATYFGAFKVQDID
Experimental: Determination of the specificity of hCD8-TRANCE and TR-Fc.
Flow cytometry. The expression of TRANCE on activated CD4+ and CD8⁺ T-cells was assessed using the TR-Fc fusion protein at 5 mg/ml followed by FITC-conjugated goat anti-human IgG (Fc specific) F(ab′)₂ fragment (Jackson. Laboratories, West Grove, Pa.). The negative control consisted of normal hIgG1 (Sigma, St Louis, […].). T-cell and thymocyte subsets were sorted using a FACS “VANTAGE”, (Becton Dickinson, Mountain View, Calif.).

FLAG-tagged soluble form of TRANCE (TRANCE-Ecto) (from UniProt O35235 72-316) (ligand)
JNK activation (fold induction over unstimulated), LNTC [1]: 2 fold
JNK activation (fold induction over unstimulated), T cell hybridomas [1]: 2 fold
JNK activation (fold induction over unstimulated), thymocytes [1]: 3 fold

human CD8-TRANCE recombinant molecule (from UniProt P01732 22-182) (ligand)
JNK activity in thymocytes of control littermates [1]: 2.5 fold

B1: TRANCE-R-Fc recombinant molecule (Fc fusion, murine, UniProt O35305 31-214, looked up)
chain: VTPPCTQERHYEHLGRCCSRCEPGKYLSSKCTPTSDSVCLPCGPDEYLDTWNEEDKCLLHKVCDAGKALVAVDPGNHTAPRRCACTAGYHWNSDCECCRRNTECAPGFGAQHPLQLNKDTVCTPCLLGFFSDVFSSTDKCKPWTNCTLLGKLEAHQGTTESDVVCSSSMTLRRPPKEAQAYLPS
notes: extracellular domain; Made in a baculovirus system and purified on protein A sepharose; also called TR-Fc; TR.R-Fc; not shown: Fc portion of human IgG1, fused to the C-terminal end of the receptor's extracellular domain
binding result [2]: binds
